Experimental data from patent US20190177437A1 (SINGH MOLECULAR MEDICINE, published 2019).

Legend:
[1] = biological target: T1, active human TNF-α full length protein (human, UniProt P01375 77-233); test: ELISA, TNF coat 0.5 µg/mL, sdAb 1 µg/mL, anti-llama 1:5,000, HRP 1:25,000
[2] = biological target: T1, active human TNF-α full length protein; test: ELISA, TNF coat 0.5 µg/mL, sdAb 1 µg/mL, anti-llama 1:5,000, HRP 1:50,000
[3] = biological target: T1, active human TNF-α full length protein; test: ELISA, TNF coat 0.25 µg/mL, sdAb 1 µg/mL, anti-llama 1:5,000, HRP 1:25,000
[4] = biological target: T1, active human TNF-α full length protein; test: ELISA, TNF coat 0.25 µg/mL, sdAb 1 µg/mL, anti-llama 1:5,000, HRP 1:50,000
[5] = biological target: T1, active human TNF-α full length protein; test: ELISA, TNF coat 0.5 µg/mL, sdAb 1 µg/mL, anti-llama 1:10,000, HRP 1:25,000
[6] = biological target: T1, active human TNF-α full length protein; test: ELISA, TNF coat 0.5 µg/mL, sdAb 1 µg/mL, anti-llama 1:10,000, HRP 1:50,000
[7] = biological target: T1, active human TNF-α full length protein; test: ELISA, TNF coat 0.125 µg/mL, sdAb 1 µg/mL, anti-llama 1:5,000, HRP 1:25,000
[8] = biological target: T1, active human TNF-α full length protein; test: ELISA, TNF coat 0.125 µg/mL, sdAb 1 µg/mL, anti-llama 1:5,000, HRP 1:50,000
[9] = biological target: T1, active human TNF-α full length protein; test: ELISA, TNF coat 0.25 µg/mL, sdAb 1 µg/mL, anti-llama 1:10,000, HRP 1:25,000
[10] = biological target: T1, active human TNF-α full length protein; test: ELISA, TNF coat 0.25 µg/mL, sdAb 1 µg/mL, anti-llama 1:10,000, HRP 1:50,000
[11] = biological target: T1, active human TNF-α full length protein; test: ELISA, TNF coat 0.125 µg/mL, sdAb 1 µg/mL, anti-llama 1:10,000, HRP 1:25,000
[12] = biological target: T1, active human TNF-α full length protein; test: ELISA, TNF coat 0.125 µg/mL, sdAb 1 µg/mL, anti-llama 1:10,000, HRP 1:50,000
[13] = biological target: T1, active human TNF-α full length protein

T1 sequence (P01375 77-233 limits assumed): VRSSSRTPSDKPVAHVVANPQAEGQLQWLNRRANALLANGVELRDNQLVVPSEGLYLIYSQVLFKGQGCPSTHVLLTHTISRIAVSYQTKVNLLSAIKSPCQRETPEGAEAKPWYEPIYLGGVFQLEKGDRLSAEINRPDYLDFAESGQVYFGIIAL

Binder	Signal/Noise Ratio [1] [ratio]	Signal/Noise Ratio [2] [ratio]	Signal/Noise Ratio [3] [ratio]	Signal/Noise Ratio [4] [ratio]	Signal/Noise Ratio [5] [ratio]	Signal/Noise Ratio [6] [ratio]	Signal/Noise Ratio [7] [ratio]	Signal/Noise Ratio [8] [ratio]	Signal/Noise Ratio [9] [ratio]	Signal/Noise Ratio [10] [ratio]	Signal/Noise Ratio [11] [ratio]	Signal/Noise Ratio [12] [ratio]	binding result [13]
anti-TNF-α VHH62 (SEQ ID NO:47) sdAb (VHH) VHH: QVQLVESGGGPVQAGETLRLSCTASGFTFAEADMGWYRQAPGHECELVSTITTEGITSEASSYYADSVRGRFTISRDNAKNMVYLQMNSLKPEDTAVYYCAPDPYAYSTYSDYCSWAQGTQGTLVTVSS	2	1.9	1.5	1.4	1.7	1.5	1.1	1.1	1.4	1.3	1.1	0.9	no binding (tested: 1 µg/mL)
anti-TNF-α VHH69 (SEQ ID NO:46) sdAb (VHH) VHH: EVQLVESGGGSVLAGGSLRLSCVASGFTSRYNYMAWFRQAPGKEREGVATIGTASGSADYYGSVKDRFTISQDNAKNTVYLQMNSLKPEDTAMYYCAARTYGTISLTPSDYRYWGQGTLVTVSS	8	7.5	3.2	2.4	5.9	3.7	1.6	1.6	2.1	1.9	1.5	1.3	–
